The source of these data is article PMC10232555.

The target in this experiment is Vim93-302-Eb1 (vimentin residues 93 to 302 followed by the Eb1 capping motif) (UniProt P08670). Description: SEC-MALS; data not shown; HS conditions. For orientation: Size exclusion chromatography separates by hydrodynamic size, large species first.

A word on the stoichiometry N: it is the number of molecules, sites or subunits per partner or assembly. Regarding “Vim93-302-Eb1 (vimentin residues 93 to 302 followed by the Eb1 capping motif) (from UniProt P08670 93-302) (domain or fragment)”, the stoichiometry N turned out to be 4.
